{"source": "paper PMC5268738", "about": "“A sequential multi-target Mps1 phosphorylation cascade promotes spindle checkpoint signaling” (eLife, 2017)", "key": {"scMad1 CTD [1]": {"target": "scMad1 CTD (UniProt P40957)", "assay": "peptide-bead pull-down, Coomassie"}, "scMad1 CTD [2]": {"target": "scMad1 CTD (UniProt P40957)", "assay": "ITC", "settings": "reference: pT455 peptide; sites T453"}, "Mad1 CTD [3]": {"target": "Mad1 CTD (UniProt Q9Y6D9)", "assay": "peptide-bead pull-down, Coomassie"}, "Mad1 CTD [4]": {"target": "Mad1 CTD (UniProt Q9Y6D9)", "assay": "ITC", "settings": "reference: pT461 peptide; sites S459"}, "Cdc20 Cdc20N, 1-170": {"target": "Cdc20 Cdc20N, 1-170 (UniProt Q12834)", "assay": "Ni2+ bead pull-down, anti-Mad1 blot", "settings": "reference: Mad1E–Mad2 wild type; sites T716"}}}
{"substance": "scBub1 449-473 (from UniProt P41695) pT453-pT455 peptide", "values": [{"measurement": "binding against the reference", "setting": "scMad1 CTD [1]; reference: pT453 peptide, sites T455", "result": "stronger"}, {"measurement": "binding against the reference", "setting": "scMad1 CTD [1]; reference: pT455 peptide, sites T453", "result": "same"}, {"measurement": "binding against the reference", "setting": "scMad1 CTD [2]", "result": "same"}]}
{"substance": "Bub1 455-477 (from UniProt O43683) pS459-pT461-pT464 peptide", "values": [{"measurement": "binding against the reference", "setting": "Mad1 CTD [3]; reference: pS459-pT461 peptide, sites T464", "result": "weaker"}]}
{"substance": "Bub1 455-477 (from UniProt O43683) pS459-pT461 peptide", "values": [{"measurement": "binding against the reference", "setting": "Mad1 CTD [3]; reference: pT461 peptide, sites S459", "result": "stronger"}, {"measurement": "binding against the reference", "setting": "Mad1 CTD [4]", "result": "stronger"}]}
{"substance": "Mad1 Mad1E (MIM + CTD) (from UniProt Q9Y6D9) Mad1E T716A", "values": [{"measurement": "binding against the reference", "setting": "Cdc20 Cdc20N, 1-170", "result": "weaker"}]}
